{"source": "patent US20260209311A1", "about": "“MODIFIED G PROTEIN COUPLED RECEPTOR AND USE THEREOF” (ALPHELIX BIOTECH CO., LTD., priority 2023, published 2026)", "molecular_target": "T1, modified GPR75 (GPR75-GFP10-11 modified protein complex) (Homo sapiens, UniProt O95800, A308G/DEL234-307/I309H/INS313[…]/N310Y)", "T1 construct": "obesity-related receptor GPR75 (1-395); signal peptide (N); made in house; The clamp protein is made in E. coli Rosetta 2 (DE3), as described for GFP-clamp", "assay": "SPR determination of affinity of purified modified GPR75 to CCL5 ligand", "assay_type": "binding", "conditions": "Biacore 8K, Series S Sensor SA chip, pH 7.4; values only in FIG. 79 C", "procedure": "The purification and identification method of the modified GPR75 fusion protein refers to Example 4. The difference is that during the purification, GFP-clamp-avi-biotin was added rather than GFP-clamp. The molecular sieve chromatography result graph of the modified fusion protein is seen in A of FIG. 79, and the SDS gel electrophoresis result graph of the modified fusion protein is seen in B of FIG. 79.\nThe purified GPR75 was used for determination of affinity to CCL5 ligand via surface plasmon resonance (SPR). The used instrument was Biacore 8K, and the chip was Series S Sensor SA Chip:SA-2429. Both a protein immobilization buffer and a running buffer contained 20 mM HEPES, 150 mM NaCl, 0.005% LMNG and 0.0005% CHS, pH 7.4. The affinity determination results are seen in C of FIG. 79.", "data": [{"substance": "CCL5: CCL5 ligand of the obesity-related receptor GPR75", "values": [{"measurement": "affinity (SPR)", "result": "close to reported results"}]}]}
